Experimental data reported in publication PMC10960832.

How the values were obtained:
[1] = target: C-terminal avi tagged 53BP1 Tudor domain, biotinylated (human) (UniProt Q12888); assay: AlphaScreen or HTRF; TR-FRET competition: 0.5 uM His-tagged i53, 0.5 uM C-terminal avi tagged 53BP1, 5 nM europium anti-His antibody, 0.5x streptavidin-XL665, i53 variant 5000-4.8 nM; 50 mM Tris pH 7.5, 150 mM NaCl, 0.02% Tween-20, 0.05% BSA; 2 h at room temperature; non-linear 4 parameter curve …
[2] = target: 53BP1 Tudor domain (53BP1 residues 1484–1603) (human) (UniProt Q12888)

Row | Substance | EC50 [1] [nM] | potency in increasing HDR / decreasing NHEJ at HBB in HSPCs (dose response of purified protein in the electroporation mix, HBB-SNP AAV6), relative to parental i53 [2] [fold]
1 | i53 (WT) (designed binder) | 1080 | –
2 | i53 variant L67H (designed binder) | 465 | –
3 | i53 variant L67H.H68Y (designed binder) | 501 | –
4 | i53 variant L67R (designed binder) | 458 | 3
5 | i53 variant T12V.T14H.L67H (designed binder) | 338 | 3
6 | i53 variant T12Y.T14E.L67R (designed binder) | 179 | –
